This passage reports Km results from article PMC6890836, “Exploiting Substrate Promiscuity of Ectoine Hydroxylase for Regio- and Stereoselective Modification of Homoectoine” (Frontiers in Microbiology, 2019).

Common to all, as to experiment: purified protein
Substrate in data set [1]: CC1=NC(C(=O)O)CCCN1
The format is biochemical, Stutzerimonas stutzeri. To be noted: 10 mM 2-oxoglutarate, 1 mM FeSO4, 100 mM KCl, 100 mM TES pH 7.5, 35 °C, no catalase.

Substrate in data set [2]: CC1=N[C@H](C(=O)O)CCN1
The class given is biochemical, Stutzerimonas stutzeri. The following applies: 10 mM 2-oxoglutarate, 1 mM FeSO4, 100 mM KCl, 100 mM TES pH 7.5, 35 °C, no catalase.

Substrate in data set [3]: CC1=NC(C(=O)O)CCCN1
The class given is biochemical, Sphingopyxis alaskensis. To be noted: 10 mM 2-oxoglutarate, 1 mM FeSO4, 100 mM KCl, 100 mM TES pH 7.5, 15 °C, 1300 U bovine catalase.

Substrate in data set [4]: CC1=N[C@H](C(=O)O)CCN1
The class given is biochemical, Sphingopyxis alaskensis. The following applies: 10 mM 2-oxoglutarate, 1 mM FeSO4, 100 mM KCl, 100 mM TES pH 7.5, 15 °C, 1300 U bovine catalase.

B1: (Ps)EctD, ectoine hydroxylase from P. stutzeri A1501 (Stutzerimonas stutzeri A1501) (protein)
chain: MQADLYPSRQEDQPSWQERLDPVVYRSDLENAPIAAELVERFERDGYLVIPNLFSADEVALFRAELERMRQDPAVAGSGKTIKEPDSGAIRSVFAIHKDNELFARVAADERTAGIARFILGGDLYVHQSRMNFKPGFTGKEFYWHSDFETWHIEDGMPRMRCLSCSILLTDNEPHNGPLMLMPGSHKHYVRCVGATPENHYEKSLRKQEIGIPDQNSLSELASRFGIDCATGPAGSVVFFDCNTMHGSNGNITPSARSNLFYVYNHVDNAVQAPFCEQKPRPAFVAERENFKPLDIRPQQYL
notes: full-length, Strep-tag II fusion (tag kept), from plasmid pMP41 in E. coli BL21(DE3); EctD is a dimer in solution
As for B1, the Km was found to be 2600 ± 200 µM in data set [1] and 2300 ± 200 µM in data set [2].

B2: (Sa)EctD, ectoine hydroxylase from S. alaskensis (Sphingopyxis alaskensis RB2256) (protein)
chain: MQDLYPSRQRADAEMRPRLDPVVHSEWTNDAPISARQAAAFDRDGYIVLEDIFSADEVAFLQKAAGNLLADPAALDADTIVTEPQSNEIRSIFEIHAQSPVMARLAADARLADVARFLLGDEVYIHQSRLNYKPGFKGREFYWHSDFETWHVEDGMPRMRALSMSVLLAENTPHNGPLMVIPGSHRTYLTCVGETPDDHYLSSLKKQEYGVPDEESLAELAHRHGIVAPTGKPGTVILFDCNLMHGSNGNITPFPRANAFLVYNAVSNRLEKPFGVEKPRPWFLARRGEPAALRVERGPLVETVPA
notes: full-length, Strep-tag II fusion (tag kept), from plasmid pMP40 in E. coli BL21(DE3); dimer
Regarding B2, the Km in data set [3] is 3100 ± 300 µM; in data set [4], 800 ± 100 µM.
